{
  "source": "patent US20050221292A1",
  "key": {"[1]": {"molecular_target": "T1, F(uPA): Sendai virus F protein with the activation site modified to VGR (UniProt P04855)", "T1 sequence": "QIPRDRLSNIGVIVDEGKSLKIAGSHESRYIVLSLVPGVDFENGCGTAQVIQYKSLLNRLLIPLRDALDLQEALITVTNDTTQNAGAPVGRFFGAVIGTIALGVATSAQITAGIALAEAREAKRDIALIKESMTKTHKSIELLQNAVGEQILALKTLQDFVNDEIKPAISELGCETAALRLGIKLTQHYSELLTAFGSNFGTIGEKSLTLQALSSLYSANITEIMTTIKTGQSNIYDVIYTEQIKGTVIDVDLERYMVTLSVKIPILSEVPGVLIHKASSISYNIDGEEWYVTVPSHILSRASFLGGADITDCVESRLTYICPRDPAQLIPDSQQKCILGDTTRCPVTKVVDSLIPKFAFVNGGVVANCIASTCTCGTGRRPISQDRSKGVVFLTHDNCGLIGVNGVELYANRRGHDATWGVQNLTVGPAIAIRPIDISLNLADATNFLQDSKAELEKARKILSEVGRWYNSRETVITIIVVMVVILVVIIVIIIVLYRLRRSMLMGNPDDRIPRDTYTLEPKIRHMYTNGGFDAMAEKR"}, "[2]": {"molecular_target": "T2, Sendai virus (SeV) F protein, wild type (unmodified F) (UniProt P04855)", "T2 sequence": "T1 sequence with V89Q, G90S"}, "[3]": {"molecular_target": "T3, Fct14(MMP#6)/Linker/HN chimeric protein (UniProt P04855)", "T3 sequence": "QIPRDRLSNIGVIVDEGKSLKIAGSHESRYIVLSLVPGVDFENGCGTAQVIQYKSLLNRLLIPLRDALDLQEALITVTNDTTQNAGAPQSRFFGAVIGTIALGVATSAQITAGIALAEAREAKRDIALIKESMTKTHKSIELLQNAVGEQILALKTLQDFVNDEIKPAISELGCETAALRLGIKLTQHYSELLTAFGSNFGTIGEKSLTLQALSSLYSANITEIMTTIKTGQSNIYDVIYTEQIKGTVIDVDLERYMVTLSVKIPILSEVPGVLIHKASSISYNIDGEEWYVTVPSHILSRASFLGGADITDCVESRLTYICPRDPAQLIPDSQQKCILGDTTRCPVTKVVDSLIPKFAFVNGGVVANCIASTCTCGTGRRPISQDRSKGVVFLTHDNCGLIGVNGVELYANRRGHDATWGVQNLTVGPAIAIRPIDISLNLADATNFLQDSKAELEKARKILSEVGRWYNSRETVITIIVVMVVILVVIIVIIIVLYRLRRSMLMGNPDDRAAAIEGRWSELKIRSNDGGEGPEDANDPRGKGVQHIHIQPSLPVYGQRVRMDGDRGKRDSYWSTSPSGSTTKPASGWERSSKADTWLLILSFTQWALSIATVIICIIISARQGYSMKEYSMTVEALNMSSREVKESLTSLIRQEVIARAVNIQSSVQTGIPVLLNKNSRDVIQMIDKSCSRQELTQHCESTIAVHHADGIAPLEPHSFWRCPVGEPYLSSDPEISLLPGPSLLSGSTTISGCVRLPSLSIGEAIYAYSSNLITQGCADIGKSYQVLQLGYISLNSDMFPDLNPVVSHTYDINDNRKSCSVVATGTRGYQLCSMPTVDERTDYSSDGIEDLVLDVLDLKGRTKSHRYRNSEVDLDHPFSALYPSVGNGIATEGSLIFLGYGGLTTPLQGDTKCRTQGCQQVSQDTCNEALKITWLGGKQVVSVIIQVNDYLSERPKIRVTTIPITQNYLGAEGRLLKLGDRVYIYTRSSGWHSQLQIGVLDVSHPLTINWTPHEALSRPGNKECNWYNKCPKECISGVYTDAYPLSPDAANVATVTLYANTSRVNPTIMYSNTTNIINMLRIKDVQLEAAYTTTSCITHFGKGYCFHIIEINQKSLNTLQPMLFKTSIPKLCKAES"}, "[4]": {"molecular_target": "T4, F(MMP#2): Sendai virus F protein with the activation site modified to PLG↓MTS (UniProt P04855)", "T4 sequence": "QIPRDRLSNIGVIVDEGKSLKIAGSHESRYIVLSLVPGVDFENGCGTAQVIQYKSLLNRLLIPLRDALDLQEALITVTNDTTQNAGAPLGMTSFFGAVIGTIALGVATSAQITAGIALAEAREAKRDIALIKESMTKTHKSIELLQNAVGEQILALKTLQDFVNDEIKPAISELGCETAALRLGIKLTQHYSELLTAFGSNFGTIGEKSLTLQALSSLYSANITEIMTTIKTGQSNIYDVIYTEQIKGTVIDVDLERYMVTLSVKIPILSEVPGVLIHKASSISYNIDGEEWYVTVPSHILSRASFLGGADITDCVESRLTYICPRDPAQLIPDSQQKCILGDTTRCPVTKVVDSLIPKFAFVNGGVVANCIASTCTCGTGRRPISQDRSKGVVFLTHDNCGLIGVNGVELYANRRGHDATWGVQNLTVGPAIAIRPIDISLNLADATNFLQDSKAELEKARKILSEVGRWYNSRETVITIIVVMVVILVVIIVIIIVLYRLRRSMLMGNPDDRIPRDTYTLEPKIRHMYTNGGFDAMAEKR"}},
  "note": "Residue numbers refer to the chain shown, from its start.",
  "data": [
    {"substance": "trypsin (Gibco-BRL)", "values": [
      {"measurement": "cleavage of F0 to F1 (Western blotting; data not shown)", "setting": "[1]", "result": "for the M-deficient SeV vector into which uPA sequence is inserted, cleavage of F1 was observed in the presence of trypsin when the degradation time was prolonged to four hours"},
      {"measurement": "cleavage of F0 to F1 (Western blotting of protease-treated viral particles)", "setting": "[2]", "result": "trypsin cleaved the F protein of the F-unmodified M-deficient SeV vector"}
    ]},
    {"substance": "uPA (urokinase-type plasminogen activator)", "values": [
      {"measurement": "cleavage of F0 to F1 (Western blotting of protease-treated viral particles)", "setting": "[1]", "result": "uPA cleaved that of the M-deficient SeV vector having the uPA sequence inserted into the F protein"},
      {"measurement": "syncytia formation in LLC-MK2 (exogenous protease)", "setting": "[1]", "result": "upon further modification of the F protein, showed the formation of syncytia, multinuclear cells, in the presence of uPA"}
    ]},
    {"substance": "type IV collagenase (Clostridium histolyticum) (ICN)", "values": [
      {"measurement": "fusogenicity (syncytium formation) relative to the MMP#2 chimera, against concentration of added collagenase", "setting": "[3]", "result": "MMP#6 was found to have two to three times higher fusogenicity compared to MMP#2"}
    ]},
    {"substance": "active MMP-9 (COSMO BIO)", "values": [
      {"measurement": "cleavage of F0 to F1 (Western blotting of protease-treated viral particles)", "setting": "[4]", "result": "MMP-9 cleaved that of the M-deficient SeV vector having the MMP#2 sequence inserted into the F protein"}
    ]}
  ]
}
